Assay results taken from PMC10442227, “Mechanistic and evolutionary insights into a type V-M CRISPR–Cas effector enzyme”.

What was measured:
Cas12m2 (SPR prep) = target: T1, Cas12m2 (SPR prep) (UniProt PDB:8HIO_2 1-596); assay: SPR; 5 mM Mg2+; two-state fit, 8-63 nM RNP; SPR: 20 mM HEPES pH 7.8, 150 mM KCl, 10% glycerol, 5 mM MgCl2, 1 mM DTT, 0.05% Tween-20, 25 C; cryo-EM: 20 mM HEPES-NaOH pH 7.6, 50 mM NaCl, 2 mM MgCl2, 10 uM ZnCl2; conditions: protein: recombinant; tags: pML-1B vector, nickel-purified (His); label: 5'-biotin on DNA top strand; guide pairs with DNA top strand; DNA blunt 50-bp duplex
T1 sequence: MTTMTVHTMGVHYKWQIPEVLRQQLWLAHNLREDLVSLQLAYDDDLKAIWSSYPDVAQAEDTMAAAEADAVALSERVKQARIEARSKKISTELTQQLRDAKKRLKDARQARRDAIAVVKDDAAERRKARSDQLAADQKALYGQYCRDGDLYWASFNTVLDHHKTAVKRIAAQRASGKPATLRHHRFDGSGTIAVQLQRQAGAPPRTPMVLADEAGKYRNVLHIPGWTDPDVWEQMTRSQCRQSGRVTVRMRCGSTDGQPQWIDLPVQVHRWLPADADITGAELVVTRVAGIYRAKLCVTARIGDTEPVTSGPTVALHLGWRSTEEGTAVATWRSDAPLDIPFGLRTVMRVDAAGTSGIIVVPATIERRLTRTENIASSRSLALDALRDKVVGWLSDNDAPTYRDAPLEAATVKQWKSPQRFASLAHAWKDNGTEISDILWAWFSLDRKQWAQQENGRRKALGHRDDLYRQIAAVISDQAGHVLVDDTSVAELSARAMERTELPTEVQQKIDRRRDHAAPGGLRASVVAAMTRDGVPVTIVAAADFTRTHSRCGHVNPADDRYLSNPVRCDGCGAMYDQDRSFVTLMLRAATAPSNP

Cas12m2 = target: T2, Cas12m2 (UniProt PDB:8HIO_2 1-596); assay: cryo-EM; full R-loop state (state I), 17-bp heteroduplex; Mg2+, Zn2+; SPR: 20 mM HEPES pH 7.8, 150 mM KCl, 10% glycerol, 5 mM MgCl2, 1 mM DTT, 0.05% Tween-20, 25 C; cryo-EM: 20 mM HEPES-NaOH pH 7.6, 50 mM NaCl, 2 mM MgCl2, 10 uM ZnCl2; conditions: protein: recombinant; tags: N-terminal His6; crRNA guide pairs with S4 (17 bp, R-loop); S4/S5 blunt 36-bp duplex
T2 sequence: T1 sequence

Cas12m2 (binary complex) = target: T3, Cas12m2 (binary complex) (UniProt PDB:8HIO_2 1-596); assay: cryo-EM; binary complex; SPR: 20 mM HEPES pH 7.8, 150 mM KCl, 10% glycerol, 5 mM MgCl2, 1 mM DTT, 0.05% Tween-20, 25 C; cryo-EM: 20 mM HEPES-NaOH pH 7.6, 50 mM NaCl, 2 mM MgCl2, 10 uM ZnCl2; conditions: protein: recombinant; tags: N-terminal His6; chain copies: 2; stem and pseudoknot scaffold
T3 sequence: T1 sequence

B1: PAM-SCNR RNA + 50-bp target dsDNA (mixed)
RNA: GUGUCAUAGCCCAGCUUGGCGGGCGAAGGCCAAGACGUCGAGUGCAAAACCUUUCG
DNA 1: CAGCTATAGTTCTCGAAAGGTTTTGCACTCGACTAAAGGACTCTATGACC
DNA 2: GGTCATAGAGTCCTTTAGTCGAGTGCAAAACCTTTCGAGAACTATAGCTG
Question: How did the Kd (Cas12m2 (SPR prep)) turn out when B1 was run?
Answer: The Kd was about 2.7 nM.

B2: crRNA (56 nt) + 36-bp target DNA (TTG PAM) (mixed)
RNA: GUGUCAUAGCCCAGCUUGGCGGGCGAAGGCCAAGACGGAGAUGAGGUGCGCGUGGC
DNA 1: GATGGTGCCACGCGCACCTCATCTCCCAAATAGACA
DNA 2: TGTCTATTTGGGAGATGAGGTGCGCGTGGCACCATC
Question: Does B2 bind (Cas12m2)?
Answer: Result: binds

B3: crRNA (56 nt) (structured_RNA)
RNA: B2 RNA
Question: Does B3 bind (Cas12m2 (binary complex))?
Answer: Result: binds
